Assays:
[1] = biological target: HIV-1 Env (HXB2 strain) homotrimer with N656D in gp41 (HIV-1 (HXB2 strain))
[2] = biological target: HIV-1 Env (HXB2 strain) homotrimer with Q552R/N637K in gp41 (HIV-1 (HXB2 strain))
[3] = biological target: HIV-1 Env (HXB2 strain) homotrimer with L544S in gp41 (HIV-1 (HXB2 strain))
[4] = biological target: HIV-1 Env (HXB2 strain) homotrimer with V549A in gp41 (HIV-1 (HXB2 strain))

Substance “5-Helix, mutant version with L556A/V570A in all three N-HR segments (from UniProt P04578 543-582; P04578 625-661; P04578 543-582; P04578 625-661; P04578 543-582) (designed binder)” has a fold resistance to 5H (LAVA) in inhibition of infection by pseudotyped HIV-1, N656D against wild type Env (HXB2) homotrimers [1] of over 100 fold.

With “C-peptide C37-KYI (from UniProt P04578 625-661)” the IC50.1 (high potency phase, fraction f = 0.31) of C37-KYI inhibition of infection by pseudotyped HIV-1, two-site inhibition model (HOS-CXCR4+ cells) [2] was 0.008 µM and the IC50.2 (low potency phase, fraction 1 - f) of C37-KYI inhibition of infection by pseudotyped HIV-1, two-site inhibition model (HOS-CXCR4+ cells) [2] was 0.18 µM.

C-peptide T20 gave a fold resistance to T20 in inhibition of infection by pseudotyped HIV-1, L544S against wild type Env (HXB2) homotrimers (U87.CD4.CXCR4 cells) [3] of 30 fold and a fold resistance to T20 in inhibition of infection by pseudotyped HIV-1, V549A against wild type Env (HXB2) homotrimers (U87.CD4.CXCR4 cells) [4] of 50 fold.

— PMC5222517
